{"source": "paper PMC12463560", "molecular_target": "PEDV-S1 protein fused with an Fc region (PEDV-S1-Fc protein) (porcine epidemic diarrhea virus | human)", "assay": "SDS-PAGE under reducing and non-reducing conditions; purified proteins loaded with (+) or without (-) beta-mercaptoethanol, Coomassie stained; shows disulfide-linked dimers only", "data": [{"substance": "PEDV-S1 protein fused with an Fc region (PEDV-S1-Fc protein) (Fc fusion)", "values": [{"measurement": "stoichiometry N", "result": 2}]}]}
